Laboratory results published in patent US20200123264A1 (Regeneron, published 2020).

T1: recombinant human LEPR extracellular domain expressed with a C-terminal mouse IgG2a Fc tag (human)
T1 construct: Dimeric construct; also called hLEPR.mFc; hLEPR-mFc
T1 chain: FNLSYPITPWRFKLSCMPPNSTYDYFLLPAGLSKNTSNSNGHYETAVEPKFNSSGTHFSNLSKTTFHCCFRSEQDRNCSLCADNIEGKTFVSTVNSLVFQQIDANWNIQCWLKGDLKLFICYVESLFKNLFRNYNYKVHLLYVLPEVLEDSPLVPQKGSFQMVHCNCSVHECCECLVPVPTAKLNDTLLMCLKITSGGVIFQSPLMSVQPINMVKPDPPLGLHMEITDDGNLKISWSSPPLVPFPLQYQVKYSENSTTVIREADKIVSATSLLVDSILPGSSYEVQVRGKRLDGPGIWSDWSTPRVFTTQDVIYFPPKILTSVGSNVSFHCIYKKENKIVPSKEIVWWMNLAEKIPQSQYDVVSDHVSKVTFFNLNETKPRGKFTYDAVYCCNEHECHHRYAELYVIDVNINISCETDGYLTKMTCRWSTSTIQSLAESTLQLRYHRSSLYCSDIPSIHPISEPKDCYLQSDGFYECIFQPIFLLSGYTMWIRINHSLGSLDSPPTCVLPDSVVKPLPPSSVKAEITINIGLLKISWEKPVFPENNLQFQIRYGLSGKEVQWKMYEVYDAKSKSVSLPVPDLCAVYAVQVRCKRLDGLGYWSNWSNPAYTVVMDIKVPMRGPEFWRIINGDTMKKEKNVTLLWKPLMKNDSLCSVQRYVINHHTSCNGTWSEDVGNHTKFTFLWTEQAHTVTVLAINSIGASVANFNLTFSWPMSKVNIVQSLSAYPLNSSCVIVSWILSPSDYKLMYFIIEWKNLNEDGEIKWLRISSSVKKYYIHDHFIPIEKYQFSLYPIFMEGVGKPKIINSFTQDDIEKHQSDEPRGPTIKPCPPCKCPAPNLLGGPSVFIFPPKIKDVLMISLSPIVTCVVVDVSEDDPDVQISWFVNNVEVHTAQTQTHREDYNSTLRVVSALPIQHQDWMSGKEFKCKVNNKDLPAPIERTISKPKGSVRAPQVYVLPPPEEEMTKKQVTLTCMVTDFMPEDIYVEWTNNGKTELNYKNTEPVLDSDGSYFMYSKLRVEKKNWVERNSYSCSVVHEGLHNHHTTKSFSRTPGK


Experiments:
[1] = molecular target: T2, recombinant cynomolgus monkey LEPR extracellular domain expressed with a C-terminal myc-myc-hexahistidine tag (cynomolgus monkey, UniProt Q9MYL0 22-837 (rhesus entry)); assay: SPR, mAb captured, 25 C
T2 construct: Monomeric construct; also called mfLEPR.MMH; mfLEPR-MMH
Protocol: (§1) Equilibrium dissociation constants (KD values) for antigen binding to purified anti-LEPR monoclonal antibodies of the invention were determined using a real-time surface plasmon resonance biosensor using a Biacore 4000 instrument. All binding studies were performed in running buffer containing 10 mM HEPES, 150 mM NaCl, 3 mM EDTA, and 0.05% v/v Surfactant Tween-20, pH 7.4 (HBS-ET running buffer) at 25° C. and 37° C. The Biacore sensor surface was first derivatized by amine coupling with a monoclonal mouse anti-human Fc antibody (GE, # BR-1008-39) to the capture anti-LEPR monoclonal antibodies. The LEPR reagents tested for binding to the anti-LEPR monoclonal antibodies included recombinant human LEPR extracellular domain expressed with a C-terminal myc-myc-hexahistidine tag (hLEPR.MMH; SEQ ID NO:90), recombinant cynomolgus monkey LEPR extracellular domain expressed with a C-terminal myc-myc-hexahistidine tag (mfLEPR.MMH; SEQ ID NO:93), recombinant mouse LEPR extracellular domain expressed with a C-terminal myc-myc-hexahistidine tag (mLEPR.MMH; SEQ ID NO:94), recombinant rat LEPR extracellular domain expressed with a C-terminal myc-myc-hexahistidine tag (rLEPR.MMH; SEQ ID NO:95), and recombinant human LEPR extracellular domain expressed with a C-terminal mouse IgG2a Fc tag (hLEPR.mFc; SEQ ID NO:91). LEPR constructs that include MMH tags are monomeric LEPR constructs, and LEPR constructs including an mFc tag are dimeric LEPR constructs. […] The dissociation of monoclonal antibody bound LEPR reagent was monitored for 10 minutes in HBS-ET running buffer. Kinetic association (10 and dissociation (10 rate constants were determined by fitting the real-time binding sensorgrams to a 1:1 binding model with mass transport limitation using Scrubber 2.0c curve-fitting software. Binding dissociation equilibrium constants (KD) and dissociative half-lives (t½) were calculated from the kinetic rate constants as: […]

[2] = molecular target: T1, recombinant human LEPR extracellular …; assay: SPR, mAb captured, 25 C
Protocol: as §1

[3] = molecular target: T3, recombinant mouse LEPR extracellular domain expressed with a C-terminal myc-myc-hexahistidine tag (mouse, UniProt P48356 22-839); assay: SPR, mAb captured, 25 C
T3 construct: Monomeric construct; also called mLEPR.MMH; mLEPR-MMH
Protocol: as §1

[4] = molecular target: T2, recombinant cynomolgus monkey LEPR …; assay: SPR, mAb captured, 37 C
Protocol: as §1

[5] = molecular target: T1, recombinant human LEPR extracellular …; assay: SPR, mAb captured, 37 C
Protocol: as §1

[6] = molecular target: T4, recombinant rat LEPR extracellular domain expressed with a C-terminal myc-myc-hexahistidine tag (rat, UniProt Q62959 22-839); assay: SPR, mAb captured, 37 C
T4 construct: Monomeric construct; also called rLEPR.MMH; rLEPR-MMH
Protocol: as §1

[7] = molecular target: T3, recombinant mouse LEPR extracellular …; assay: SPR, mAb captured, 37 C
Protocol: as §1

[8] = molecular target: T5, recombinant human LEPR extracellular domain expressed with a C-terminal myc-myc-hexahistidine tag (human, UniProt P48357 22-839); assay: SPR, mAb captured, 37 C
T5 construct: Monomeric construct; also called hLEPR.MMH; hLEPR-MMH
Protocol: as §1

T4 sequence (Q62959 other isoform, or with tags, fused parts or gaps): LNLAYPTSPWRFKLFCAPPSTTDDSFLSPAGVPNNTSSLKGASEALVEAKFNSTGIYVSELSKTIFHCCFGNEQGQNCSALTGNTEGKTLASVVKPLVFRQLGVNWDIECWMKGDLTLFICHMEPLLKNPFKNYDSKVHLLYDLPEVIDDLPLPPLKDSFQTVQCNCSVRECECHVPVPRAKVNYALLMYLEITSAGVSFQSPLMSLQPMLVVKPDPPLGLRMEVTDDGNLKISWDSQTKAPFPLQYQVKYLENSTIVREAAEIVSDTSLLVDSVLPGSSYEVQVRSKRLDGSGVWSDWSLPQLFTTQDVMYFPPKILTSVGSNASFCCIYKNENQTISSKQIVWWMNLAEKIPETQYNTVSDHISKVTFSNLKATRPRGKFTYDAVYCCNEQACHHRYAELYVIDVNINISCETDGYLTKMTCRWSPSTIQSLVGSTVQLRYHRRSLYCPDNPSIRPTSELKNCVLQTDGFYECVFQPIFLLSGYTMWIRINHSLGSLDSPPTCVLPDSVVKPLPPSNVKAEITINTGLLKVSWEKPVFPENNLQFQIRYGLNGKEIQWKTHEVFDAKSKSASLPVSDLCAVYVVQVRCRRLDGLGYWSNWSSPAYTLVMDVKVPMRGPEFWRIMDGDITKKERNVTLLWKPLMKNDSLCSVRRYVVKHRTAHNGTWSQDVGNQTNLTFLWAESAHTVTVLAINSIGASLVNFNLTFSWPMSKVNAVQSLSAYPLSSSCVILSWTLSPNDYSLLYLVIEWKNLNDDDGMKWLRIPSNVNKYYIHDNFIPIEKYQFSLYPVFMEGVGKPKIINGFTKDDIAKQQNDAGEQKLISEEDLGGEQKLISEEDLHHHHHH
T3 sequence (P48356 other isoform, or with tags, fused parts or gaps): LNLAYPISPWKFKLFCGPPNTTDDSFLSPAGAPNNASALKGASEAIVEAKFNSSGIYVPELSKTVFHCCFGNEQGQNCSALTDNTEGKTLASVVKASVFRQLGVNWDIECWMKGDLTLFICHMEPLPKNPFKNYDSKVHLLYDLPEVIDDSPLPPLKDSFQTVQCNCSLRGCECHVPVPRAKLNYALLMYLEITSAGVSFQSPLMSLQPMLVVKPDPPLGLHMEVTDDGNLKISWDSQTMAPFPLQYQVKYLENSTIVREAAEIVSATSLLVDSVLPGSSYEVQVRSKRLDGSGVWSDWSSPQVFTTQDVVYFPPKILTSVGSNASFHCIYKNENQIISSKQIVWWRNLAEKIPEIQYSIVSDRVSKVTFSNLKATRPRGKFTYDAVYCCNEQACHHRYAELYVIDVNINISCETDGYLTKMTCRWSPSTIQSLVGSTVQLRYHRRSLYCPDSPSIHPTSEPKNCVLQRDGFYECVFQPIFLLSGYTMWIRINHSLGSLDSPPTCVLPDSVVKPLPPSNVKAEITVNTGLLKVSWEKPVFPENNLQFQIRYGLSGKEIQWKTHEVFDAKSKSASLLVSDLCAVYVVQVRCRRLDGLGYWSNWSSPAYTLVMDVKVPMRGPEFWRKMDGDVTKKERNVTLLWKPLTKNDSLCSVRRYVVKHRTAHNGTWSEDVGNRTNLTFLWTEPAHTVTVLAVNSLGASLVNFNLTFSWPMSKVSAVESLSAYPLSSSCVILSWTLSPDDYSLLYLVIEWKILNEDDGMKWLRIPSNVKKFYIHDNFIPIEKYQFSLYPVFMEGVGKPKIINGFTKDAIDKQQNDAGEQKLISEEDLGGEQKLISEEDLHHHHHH

Binder	100 nM mfLEPR-MMH Bound (RU) [1] [RU]	Kd [1] [nM]	koff [1] [s⁻¹]	kon [1] [M⁻¹ s⁻¹]	t½ [1] [min]	100 nM hLEPR-mFc Bound (RU) [2] [RU]	Kd [2] [nM]	koff [2] [s⁻¹]	kon [2] [M⁻¹ s⁻¹]	t½ [2] [min]	100 nM mLEPR-MMH Bound (RU) [3] [RU]	100 nM mfLEPR-MMH Bound (RU) [4] [RU]	Kd [4] [nM]	koff [4] [s⁻¹]	kon [4] [M⁻¹ s⁻¹]	t½ [4] [min]	100 nM hLEPR-mFc Bound (RU) [5] [RU]	Kd [5] [nM]	koff [5] [s⁻¹]	kon [5] [M⁻¹ s⁻¹]	further results
H4H18440P2 (antibody, human IgG4, V domains shown, H4H prefix: human IgG4 Fc) VH: QVQLVESGGGMVKPGGSLRLSCAASGFTFSDYYMSWIRQAPGKGLEWISHISITGSTIYYADSVKGRFTISRDNAKNSLYLEMNRLRDEDTAVYYCTRDEPDIVLVRYGMDVWGQGTTVTVSS VL: not shown	67	54.1	0.00268	49500	4.3	140	0.443	6.82e-05	154000	169	-3	66	101	0.00724	71500	1.6	181	0.527	0.000112	212000	t½ [5]: 103 min; 100 nM rLEPR-MMH Bound (RU) [6]: 0 RU; 100 nM mLEPR-MMH Bound (RU) [7]: -1 RU; 100 nM hLEPR-MMH Bound (RU) [8]: 95 RU; Kd [8]: 27.3 nM; koff [8]: 0.00173 s⁻¹; kon [8]: 63400 M⁻¹ s⁻¹; t½ [8]: 7 min
H4H18457P2 (antibody, human IgG4, V domains shown, H4H prefix: human IgG4 Fc) VH: EVQLVESGGSVVRPGESLRLSCAASGFTFDDYGMSWVRQAPGKGLEWVSGISWNGGITVYADSVKGRFTVSRDNAKNSLYLQMNSLRAEDTALYHCARARYGGADYWGQGTLVTVSS VL: not shown	133	12.2	0.00331	273000	3.5	149	0.863	0.000423	491000	27	1	117	30	0.0104	347000	1.1	166	1.27	0.000704	556000	t½ [5]: 16 min; 100 nM rLEPR-MMH Bound (RU) [6]: 16 RU; Kd [6]: 580 nM; koff [6]: 0.0175 s⁻¹; kon [6]: 30200 M⁻¹ s⁻¹; t½ [6]: 0.7 min; 100 nM mLEPR-MMH Bound (RU) [7]: -1 RU; 100 nM hLEPR-MMH Bound (RU) [8]: 108 RU; Kd [8]: 24.8 nM; koff [8]: 0.00855 s⁻¹; kon [8]: 345000 M⁻¹ s⁻¹; t½ [8]: 1.4 min

Further lines, with some results ahead:

100 nM mfLEPR-MMH Bound (RU) [1] [RU]	Kd [1] [nM]	koff [1] [s⁻¹]	kon [1] [M⁻¹ s⁻¹]	t½ [1] [min]	100 nM hLEPR-mFc Bound (RU) [2] [RU]	Kd [2] [nM]	koff [2] [s⁻¹]	kon [2] [M⁻¹ s⁻¹]	t½ [2] [min]	100 nM mLEPR-MMH Bound (RU) [3] [RU]	100 nM mfLEPR-MMH Bound (RU) [4] [RU]	Kd [4] [nM]	koff [4] [s⁻¹]	kon [4] [M⁻¹ s⁻¹]	t½ [4] [min]	100 nM hLEPR-mFc Bound (RU) [5] [RU]	Kd [5] [nM]	koff [5] [s⁻¹]	kon [5] [M⁻¹ s⁻¹]	Binder	further results
15	60.4	0.00231	38200	5	84	0.891	0.000188	211000	61	-1	13	215	0.00841	39200	1.4	105	1.28	0.000517	404000	H4H18464P2 (antibody, human IgG4, V domains shown, H4H prefix: human IgG4 Fc) VH: QVQLVQSGPEVKKPGASVKVSCKGSGYTFSWYGISWIRQAPGHGLEWMGWISASSGNTRFAQKVQGRLTMTTDTSTSTAYMELRSLRSDDTAVYYCARTGTRPFDYWGQGTLVTVSS VL: not shown	t½ [5]: 22 min; 100 nM rLEPR-MMH Bound (RU) [6]: 1 RU; 100 nM mLEPR-MMH Bound (RU) [7]: 1 RU; 100 nM hLEPR-MMH Bound (RU) [8]: 68 RU; Kd [8]: 20.5 nM; koff [8]: 0.00315 s⁻¹; kon [8]: 154000 M⁻¹ s⁻¹; t½ [8]: 3.7 min
42	179	0.0133	74200	0.9	68	3.26	0.000296	90800	39	2	28	261	0.0337	129000	0.3	84	4.26	0.000543	128000	H4H18462P2 (antibody, human IgG4, V domains shown, H4H prefix: human IgG4 Fc) VH: EVQLVESGGDLVQPGRSLRLSCAASGFTFSSFAMSWVRQAPGRGLEWVSSLSDSGDNTYYADSVKGRFTISRDNSKNTLYLQMNNLRAEDTAVYYCAKDLFSGWLFHGFDVWGQGTMVTVSS VL: not shown	binding result [3]: no binding (tested: 100 nM); t½ [5]: 21 min; 100 nM hLEPR-MMH Bound (RU) [8]: 31 RU; Kd [8]: 248 nM; koff [8]: 0.0114 s⁻¹; kon [8]: 45800 M⁻¹ s⁻¹; t½ [8]: 1 min
